Laboratory results as given in publication PMC3942479.

Target: Full-length Human cytomegalovirus glycoprotein B (FL-gB), Strep-tagged (Human cytomegalovirus (FIX7 BAC))
Assay: negative-stain electron microscopy; purified FL-gB on a glow-discharged carbon grid, 2% uranyl formate, 2D class averages

Substance: Full-length Human cytomegalovirus glycoprotein B (FL-gB), Strep-tagged (natural protein)
- stoichiometry N: 3
